Laboratory results as given in paper PMC10556141.

Target: T1, S. cerevisiae Rad51 (S. cerevisiae), P25454
T1 chain: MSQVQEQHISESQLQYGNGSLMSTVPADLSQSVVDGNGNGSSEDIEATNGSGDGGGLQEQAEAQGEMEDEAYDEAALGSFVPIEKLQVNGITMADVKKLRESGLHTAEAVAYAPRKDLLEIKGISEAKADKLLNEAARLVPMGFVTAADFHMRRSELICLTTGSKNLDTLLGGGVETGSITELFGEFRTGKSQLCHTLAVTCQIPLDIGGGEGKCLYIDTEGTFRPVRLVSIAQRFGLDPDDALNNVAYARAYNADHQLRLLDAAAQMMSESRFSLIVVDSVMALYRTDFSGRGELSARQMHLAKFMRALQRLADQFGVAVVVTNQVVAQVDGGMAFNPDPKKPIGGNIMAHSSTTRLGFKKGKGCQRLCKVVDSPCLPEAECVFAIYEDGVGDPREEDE
Test: mass photometry; TwoMP instrument; protein diluted to about 8-10 nM decamers in the well; 50 mM Tris-acetate pH 7.5, 50 mM KCl, 5 mM MgCl2
Details: remark: other sources report otherwise

stoichiometry N: 15
B1: S. cerevisiae Rad51, P25454 1-400 (natural protein)
chain: MSQVQEQHISESQLQYGNGSLMSTVPADLSQSVVDGNGNGSSEDIEATNGSGDGGGLQEQAEAQGEMEDEAYDEAALGSFVPIEKLQVNGITMADVKKLRESGLHTAEAVAYAPRKDLLEIKGISEAKADKLLNEAARLVPMGFVTAADFHMRRSELICLTTGSKNLDTLLGGGVETGSITELFGEFRTGKSQLCHTLAVTCQIPLDIGGGEGKCLYIDTEGTFRPVRLVSIAQRFGLDPDDALNNVAYARAYNADHQLRLLDAAAQMMSESRFSLIVVDSVMALYRTDFSGRGELSARQMHLAKFMRALQRLADQFGVAVVVTNQVVAQVDGGMAFNPDPKKPIGGNIMAHSSTTRLGFKKGKGCQRLCKVVDSPCLPEAECVFAIYEDGVGDPREEDE
